Experimental data reported in paper PMC13220886 (Science Advances, 2026).
Positions count from the first letter of the chain named. Numbers in names are those of the source.

B1: CHT1 (endocytosis-resistant CHT1-LV/AA, called WT CHT1) (Homo sapiens; L531A/S263A/V532A) (protein)
chain: MAFHVEGLIAIIVFYLLILLVGIWAAWRTKNSGSAEERSEAIIVGGRDIGLLVGGFTMTATWVGGGYINGTAEAVYVPGYGLAWAQAPIGYSLSLILGGLFFAKPMRSKGYVTMLDPFQQIYGKRMGGLLFIPALMGEMFWAAAIFSALGATISVIIDVDMHISVIISALIATLYTLVGGLYSVAYTDVVQLFCIFVGLWISVPFALSHPAVADIGFTAVHAKYQKPWLGTVDSSEVYSWLDSFLLLMLGGIPWQAYFQRVLASSSATYAQVLSFLAAFGCLVMAIPAILIGAIGASTDWNQTAYGLPDPKTTEEADMILPIVLQYLCPVYISFFGLGAVSAAVMSSADSSILSASSMFARNIYQLSFRQNASDKEIVWVMRITVFVFGASATAMALLTKTVYGLWYLSSDLVYIVIFPQLLCVLFVKGTNTYGAVAGYVSGLFLRITGGEPYLYLQPLIFYPGYYPDDNGIYNQKFPFKTLAMVTSFLTNICISYLAKYLFESGTLPPKLDVFDAVVARHSEENMDKTIAAKNENIKLDELALVKPRQSMTLSSTFTNKEAFLDVDSSPEGSGTEDNLQ
notes: full length; transient transfection, HeLa cells
B2: CHT1 (endocytosis-resistant CHT1-LV/AA, called WT CHT1) (Homo sapiens; L531A/V532A/W406F) (protein)
chain: B1 chain with A263S, W406F
notes: as for B1
B3: CHT1 (endocytosis-resistant CHT1-LV/AA, called WT CHT1) (Homo sapiens; L531A/Q259A/V532A) (protein)
chain: B1 chain with Q259A, A263S
notes: as for B1
B4: CHT1 (endocytosis-resistant CHT1-LV/AA, called WT CHT1) (Homo sapiens; L531A/V532A/Y91F) (protein)
chain: B1 chain with Y91F, A263S
notes: as for B1
B5: CHT1 (endocytosis-resistant CHT1-LV/AA, called WT CHT1) (Homo sapiens; L531A/V532A/W62F) (protein)
chain: B1 chain with W62F, A263S
notes: as for B1
B6: CHT1 (endocytosis-resistant CHT1-LV/AA, called WT CHT1) (Homo sapiens; L531A/V532A) (protein)
chain: B1 chain with A263S
notes: as for B1
B7: CHT1 (endocytosis-resistant CHT1-LV/AA, called WT CHT1) (Homo sapiens; L531A/V532A/W141F) (protein)
chain: B1 chain with W141F, A263S
notes: as for B1

Substrate: C[N+](C)(C)CCO
Test: [3H]-choline uptake, saturation kinetics in transfected HeLa cells
Format: cell-based, Homo sapiens
Conditions: pH 7.4, 137 mM NaCl, room temperature, 2 min, LV/AA background, labelled compound
Source text: [3H]-choline uptake, saturation kinetics in transfected HeLa cells on CHT1 (endocytosis-resistant CHT1-LV/AA, called WT CHT1)

Molecule | Km [µM] | Vmax [µmol/min/mg]
B1 | 14.60 ± 2.03 | 0.000659
B2 | 357.60 ± 99.13 | 0.000543
B3 | 10.08 ± 1.50 | 0.000387
B4 | 22.23 ± 1.91 | 0.000353
B5 | 401.72 ± 32.24 | 0.000627
B6 | 12.17 ± 1.06 | 0.00118
B7 | 270.81 ± 14.66 | 0.000588

Biological target: T1, sfCHT (Salimicrobium flavidum, UniProt A0A1N7IZC0)
T1 construct: gene SAMN05421687_10333; full length, C-terminal 3C-His10 tag (cut by 3C for cryo-EM), E. coli BL21; monomer in DDM or E. coli polar lipid proteoliposomes; residues 22-69 and 81-543 built
Test: inhibition of [3H]-choline uptake into proteoliposomes
Format: biochemical
Conditions: 1 μM HC-3, 1 μM choline, 137 mM NaCl, pH 7.4, room temperature

T1 sequence (A0A1N7IZC0 entry or part of it): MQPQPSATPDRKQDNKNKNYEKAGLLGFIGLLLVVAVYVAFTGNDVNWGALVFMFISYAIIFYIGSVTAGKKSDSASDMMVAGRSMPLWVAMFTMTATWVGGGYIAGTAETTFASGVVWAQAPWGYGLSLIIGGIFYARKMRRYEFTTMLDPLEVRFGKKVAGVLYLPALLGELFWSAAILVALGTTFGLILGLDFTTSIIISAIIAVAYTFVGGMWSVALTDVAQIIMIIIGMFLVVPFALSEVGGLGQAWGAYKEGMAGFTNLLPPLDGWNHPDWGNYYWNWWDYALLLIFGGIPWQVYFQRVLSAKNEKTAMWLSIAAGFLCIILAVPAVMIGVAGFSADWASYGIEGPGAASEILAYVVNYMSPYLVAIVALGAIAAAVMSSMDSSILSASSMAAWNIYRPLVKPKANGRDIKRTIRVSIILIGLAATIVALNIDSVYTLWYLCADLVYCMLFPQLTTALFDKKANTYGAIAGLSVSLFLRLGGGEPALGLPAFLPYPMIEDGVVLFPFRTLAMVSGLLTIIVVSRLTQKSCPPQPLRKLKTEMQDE

Molecule | uptake at 1 μM HC-3
C[N+]1(C)CCOC(O)(c2ccc(-c3ccc(C4(O)C[N+](C)(C)CCO4)cc3)cc2)C1 (stereo not drawn) [HC-3] | selectively suppressed Na^+-dependent uptake but had no effect in Na^+-free conditions
